Data from patent US10772928B2, “Modulation and detection of a neuronal alternative splicing regulatory network for treatment and diagnosis of neurological disorders” (The Governing Council of the University of Toronto, priority 2014, dated 2020).

Target: T1, nSR100 (Mus musculus, UniProt Q8BKA3)
T1 construct: host or cells: mouse N2A cells
T1 sequence (Q8BKA3 1-608): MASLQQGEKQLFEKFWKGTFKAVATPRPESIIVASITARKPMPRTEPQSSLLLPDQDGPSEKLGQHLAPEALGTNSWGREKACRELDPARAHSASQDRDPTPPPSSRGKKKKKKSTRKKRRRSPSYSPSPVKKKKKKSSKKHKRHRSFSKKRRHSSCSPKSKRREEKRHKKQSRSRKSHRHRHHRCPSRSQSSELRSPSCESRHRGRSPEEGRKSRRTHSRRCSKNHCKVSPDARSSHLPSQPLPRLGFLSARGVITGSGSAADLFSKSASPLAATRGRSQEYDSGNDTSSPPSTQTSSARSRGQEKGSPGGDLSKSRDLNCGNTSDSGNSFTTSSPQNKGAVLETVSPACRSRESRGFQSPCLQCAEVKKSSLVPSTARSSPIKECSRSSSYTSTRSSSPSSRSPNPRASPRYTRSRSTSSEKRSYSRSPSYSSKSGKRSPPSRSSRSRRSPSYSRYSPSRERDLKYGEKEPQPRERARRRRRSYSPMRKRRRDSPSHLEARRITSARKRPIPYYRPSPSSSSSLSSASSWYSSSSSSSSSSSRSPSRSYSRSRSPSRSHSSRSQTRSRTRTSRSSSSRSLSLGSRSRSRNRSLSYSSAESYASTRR
Experiment: AP-MS nSR100 interaction partners from mouse N2A cells (Table 5)
Type: binding
Conditions: for AvgP (average of the SAINT scores) / MaxP (maximal SAINT score): bait Srrm4; for FoldChange between the prey Avg spectra of the bait and control purifications: bait Srrm4, 0.1 added to prevent division by 0; for AvgSpec (average number of spectra per replicate): bait Srrm4, 2 replicates; for Spectra (number of spectra for the prey in the purification of the bait): AP-MS; for SpecSum: bait Srrm4, sum of spectra over 2 replicates

[1] = bait Srrm4, biological replicate 1 (first number of the cell)
[2] = bait Srrm4, biological replicate 2 (second number of the cell)

Text: By applying affinity purification coupled to mass-spectrometry (AP-MS), several interaction nSR100 partner proteins were detected that provide insight into mechanisms of post-translational regulation of nSR100 levels.

Csnk2b
AvgP (average of the SAINT scores): 0.99 | MaxP (maximal SAINT score): 1 | FoldChange between the prey Avg spectra of the bait and control purifications: 8.5 | AvgSpec (average number of spectra per replicate): 8.5 | Spectra (number of spectra for the prey in the purification of the bait) [1]: 10 | Spectra (number of spectra for the prey in the purification of the bait) [2]: 7 | SpecSum: 17

Ap2m1
AvgP (average of the SAINT scores): 1 | MaxP (maximal SAINT score): 1 | FoldChange between the prey Avg spectra of the bait and control purifications: 9.12 | AvgSpec (average number of spectra per replicate): 36.5 | Spectra (number of spectra for the prey in the purification of the bait) [1]: 31 | Spectra (number of spectra for the prey in the purification of the bait) [2]: 42 | SpecSum: 73

Cdc42bpb
AvgP (average of the SAINT scores): 1 | MaxP (maximal SAINT score): 1 | FoldChange between the prey Avg spectra of the bait and control purifications: 90 | AvgSpec (average number of spectra per replicate): 9 | Spectra (number of spectra for the prey in the purification of the bait) [1]: 6 | Spectra (number of spectra for the prey in the purification of the bait) [2]: 12 | SpecSum: 18

Hspa2
AvgP (average of the SAINT scores): 1 | MaxP (maximal SAINT score): 1 | FoldChange between the prey Avg spectra of the bait and control purifications: 390 | AvgSpec (average number of spectra per replicate): 39 | Spectra (number of spectra for the prey in the purification of the bait) [1]: 41 | Spectra (number of spectra for the prey in the purification of the bait) [2]: 37 | SpecSum: 78

Idh2
AvgP (average of the SAINT scores): 1 | MaxP (maximal SAINT score): 1 | FoldChange between the prey Avg spectra of the bait and control purifications: 6.6 | AvgSpec (average number of spectra per replicate): 16.5 | Spectra (number of spectra for the prey in the purification of the bait) [1]: 17 | Spectra (number of spectra for the prey in the purification of the bait) [2]: 16 | SpecSum: 33

Bub3
AvgP (average of the SAINT scores): 1 | MaxP (maximal SAINT score): 1 | FoldChange between the prey Avg spectra of the bait and control purifications: 9.5 | AvgSpec (average number of spectra per replicate): 19 | Spectra (number of spectra for the prey in the purification of the bait) [1]: 17 | Spectra (number of spectra for the prey in the purification of the bait) [2]: 21 | SpecSum: 38

Cdk1
AvgP (average of the SAINT scores): 1 | MaxP (maximal SAINT score): 1 | FoldChange between the prey Avg spectra of the bait and control purifications: 14.25 | AvgSpec (average number of spectra per replicate): 57 | Spectra (number of spectra for the prey in the purification of the bait) [1]: 47 | Spectra (number of spectra for the prey in the purification of the bait) [2]: 67 | SpecSum: 114

Ywhae
AvgP (average of the SAINT scores): 1 | MaxP (maximal SAINT score): 1 | FoldChange between the prey Avg spectra of the bait and control purifications: 3.57 | AvgSpec (average number of spectra per replicate): 25 | Spectra (number of spectra for the prey in the purification of the bait) [1]: 24 | Spectra (number of spectra for the prey in the purification of the bait) [2]: 26 | SpecSum: 50

Nudt21
AvgP (average of the SAINT scores): 0.97 | MaxP (maximal SAINT score): 1 | FoldChange between the prey Avg spectra of the bait and control purifications: 4 | AvgSpec (average number of spectra per replicate): 14 | Spectra (number of spectra for the prey in the purification of the bait) [1]: 16 | Spectra (number of spectra for the prey in the purification of the bait) [2]: 12 | SpecSum: 28

Prrc2a
AvgP (average of the SAINT scores): 0.95 | MaxP (maximal SAINT score): 0.95 | FoldChange between the prey Avg spectra of the bait and control purifications: 20 | AvgSpec (average number of spectra per replicate): 2 | Spectra (number of spectra for the prey in the purification of the bait) [1]: 2|2 | Spectra (number of spectra for the prey in the purification of the bait) [2]: 2|2 | SpecSum: 4

Rfc2
AvgP (average of the SAINT scores): 0.95 | MaxP (maximal SAINT score): 0.95 | FoldChange between the prey Avg spectra of the bait and control purifications: 20 | AvgSpec (average number of spectra per replicate): 2 | Spectra (number of spectra for the prey in the purification of the bait) [1]: 2|2 | Spectra (number of spectra for the prey in the purification of the bait) [2]: 2|2 | SpecSum: 4

Prpf8
AvgP (average of the SAINT scores): 1 | MaxP (maximal SAINT score): 1 | FoldChange between the prey Avg spectra of the bait and control purifications: 3.36 | AvgSpec (average number of spectra per replicate): 60.5 | Spectra (number of spectra for the prey in the purification of the bait) [1]: 63 | Spectra (number of spectra for the prey in the purification of the bait) [2]: 58 | SpecSum: 121

Magohb
AvgP (average of the SAINT scores): 1 | MaxP (maximal SAINT score): 1 | FoldChange between the prey Avg spectra of the bait and control purifications: 21 | AvgSpec (average number of spectra per replicate): 10.5 | Spectra (number of spectra for the prey in the purification of the bait) [1]: 10 | Spectra (number of spectra for the prey in the purification of the bait) [2]: 11 | SpecSum: 21

Wdr48
AvgP (average of the SAINT scores): 1 | MaxP (maximal SAINT score): 1 | FoldChange between the prey Avg spectra of the bait and control purifications: 45 | AvgSpec (average number of spectra per replicate): 4.5 | Spectra (number of spectra for the prey in the purification of the bait) [1]: 3 | Spectra (number of spectra for the prey in the purification of the bait) [2]: 6 | SpecSum: 9

Pcbp1
AvgP (average of the SAINT scores): 0.99 | MaxP (maximal SAINT score): 1 | FoldChange between the prey Avg spectra of the bait and control purifications: 11.33 | AvgSpec (average number of spectra per replicate): 17 | Spectra (number of spectra for the prey in the purification of the bait) [1]: 16 | Spectra (number of spectra for the prey in the purification of the bait) [2]: 18 | SpecSum: 34

Srrm2
AvgP (average of the SAINT scores): 1 | MaxP (maximal SAINT score): 1 | FoldChange between the prey Avg spectra of the bait and control purifications: 5.37 | AvgSpec (average number of spectra per replicate): 51 | Spectra (number of spectra for the prey in the purification of the bait) [1]: 47 | Spectra (number of spectra for the prey in the purification of the bait) [2]: 55 | SpecSum: 102

Son
AvgP (average of the SAINT scores): 0.98 | MaxP (maximal SAINT score): 1 | FoldChange between the prey Avg spectra of the bait and control purifications: 45 | AvgSpec (average number of spectra per replicate): 4.5 | Spectra (number of spectra for the prey in the purification of the bait) [1]: 2 | Spectra (number of spectra for the prey in the purification of the bait) [2]: 7 | SpecSum: 9

Ddx39b
AvgP (average of the SAINT scores): 1 | MaxP (maximal SAINT score): 1 | FoldChange between the prey Avg spectra of the bait and control purifications: 150 | AvgSpec (average number of spectra per replicate): 15 | Spectra (number of spectra for the prey in the purification of the bait) [1]: 15|15 | Spectra (number of spectra for the prey in the purification of the bait) [2]: 15|15 | SpecSum: 30

Snrpc
AvgP (average of the SAINT scores): 0.99 | MaxP (maximal SAINT score): 1 | FoldChange between the prey Avg spectra of the bait and control purifications: 11 | AvgSpec (average number of spectra per replicate): 5.5 | Spectra (number of spectra for the prey in the purification of the bait) [1]: 5 | Spectra (number of spectra for the prey in the purification of the bait) [2]: 6 | SpecSum: 11

Snrnp70
AvgP (average of the SAINT scores): 1 | MaxP (maximal SAINT score): 1 | FoldChange between the prey Avg spectra of the bait and control purifications: 5.1 | AvgSpec (average number of spectra per replicate): 51 | Spectra (number of spectra for the prey in the purification of the bait) [1]: 48 | Spectra (number of spectra for the prey in the purification of the bait) [2]: 54 | SpecSum: 102

Clk3
AvgP (average of the SAINT scores): 0.97 | MaxP (maximal SAINT score): 0.99 | FoldChange between the prey Avg spectra of the bait and control purifications: 25 | AvgSpec (average number of spectra per replicate): 2.5 | Spectra (number of spectra for the prey in the purification of the bait) [1]: 2 | Spectra (number of spectra for the prey in the purification of the bait) [2]: 3 | SpecSum: 5

Gpatch8
AvgP (average of the SAINT scores): 0.95 | MaxP (maximal SAINT score): 0.95 | FoldChange between the prey Avg spectra of the bait and control purifications: 20 | AvgSpec (average number of spectra per replicate): 2 | Spectra (number of spectra for the prey in the purification of the bait) [1]: 2|2 | Spectra (number of spectra for the prey in the purification of the bait) [2]: 2|2 | SpecSum: 4

Pnn
AvgP (average of the SAINT scores): 1 | MaxP (maximal SAINT score): 1 | FoldChange between the prey Avg spectra of the bait and control purifications: 25.33 | AvgSpec (average number of spectra per replicate): 38 | Spectra (number of spectra for the prey in the purification of the bait) [1]: 33 | Spectra (number of spectra for the prey in the purification of the bait) [2]: 43 | SpecSum: 76

Ap2a2
AvgP (average of the SAINT scores): 1 | MaxP (maximal SAINT score): 1 | FoldChange between the prey Avg spectra of the bait and control purifications: 6.16 | AvgSpec (average number of spectra per replicate): 117 | Spectra (number of spectra for the prey in the purification of the bait) [1]: 97 | Spectra (number of spectra for the prey in the purification of the bait) [2]: 137 | SpecSum: 234
